Columns and labels:
3T3 F442A adipose cells = test: Integrin-like signaling in adipose cells, immunoblot; type: cell-based, murine; settings: irisin 10 minutes
Protocol: Differentiated 3T3 F442A adipose cells were incubated in serum free medium for 4 hours followed by treatment of indicated concentrations of irisin for 10 minutes. Cells were lysed to detect the indicated protein level using immunoblot analysis.
Certain materials and methods were used to generate the results described herein. For example, the data shown in FIG. 1A resulted from MLO-Y4 (an osteocyte-like cell line) cells treated with the indicated concentration of irisin and hydrogen peroxide for 4 hours. Cells were stained with Hoechst 33342 (ThermoFisher Scientific, catalog number H3570) and Eth-D1 (ThermoFisher Scientific, catalog number E1169) and analyzed to determine the percentage of cell death using ImageJ. […] Co-precipitated irisin was analyzed by immunoblot analysis against flag tag (Sigma Aldrich, catalog number A8592). The data shown in FIGS. 5A and 5B were generated from MLO-Y4 cells treated and analyzed as in the experiments used to generate the data shown in FIG. 2D, except that pre-treatment of 100 nM RGDS (FIG. 5A) or echistatin (R & D Systems Inc., catalog number 3202/100U) (FIG. 5B) for 10 minutes was performed before irisin treatment. […] Sclerostin mRNA level was analyzed by qPCR (FIG. 7A). […] Epididymal fats were collected, RNAs were extracted from the tissues, and mRNA levels of the indicated genes were analyzed by qPCR. […]

[1] = system: primary inguinal fat cells; test: Ucp1 mRNA in primary inguinal fat cells; type: cell-based, mice; settings: irisin during 6 days differentiation
Protocol: FIG. 18A-FIG. 18B show mRNA and protein levels of indicated genes. 1 mg/kg irisin was injected to 8-week old mice every other day for 6 days. mRNA levels of indicated genes in inguinal fat were analyzed by qRT-PCR. Cyclophilin was used for housekeeping gene (FIG. 18A). Inguinal fats were also lysed to detect the indicated protein level using immunoblot analysis (FIG. 18B). FIGS. 18C and 18D show mRNA and protein levels of indicated genes. Mice were treated and analyzed as (A-B) with addition of coinjection of […] control RGD peptide or cyclo RGDyK (cRGDyK). mRNA levels of indicated genes in inguinal fat were analyzed by qRT-PCR. Cyclophilin was used for house-keeping gene (FIG. 18C). Inguinal fats were also lysed to detect the indicated protein level using immunoblot analysis (FIG. 18D). […] Ucp1 mRNA level was analyzed by qRT-PCR. […]
Inguinal fat tissue from 6 weeks old mice was dissected and washed with PBS, minced and digested for 1 hour at 37° C. in PBS containing 10 mM CaCl2, 2.4 U/ml dispase II (Roche) and 10 mg/ml collagenase D (Roche). […] After that, cells were maintained in 1 μM rosiglitazone in the presence of 0, 0.5, 5 or 50 ng/ml recombinant […] his-tag irisin protein for 4 days with medium change every other day. mRNA levels were analyzed as described in gene expression analysis. […]

B1: irisin: secreted cleaved form of FNDC5; recombinant human/mouse irisin with C-terminal his tag produced in HEK293 cells (protein)
chain: DSPSAPVNVTVRHLKANSAVVSWDVLEDEVVIGFAISQQKKDVRMLRFIQEVNTTTRSCALWDLEEDTEYIVHVQAISIQGQSPASEPVLFKTPREAEKMASKNKDEVTMKE
modifications: left off: small tags and cut ends
notes: secreted cleaved form of FNDC5; recombinant human/mouse irisin with C-terminal his tag produced in HEK293 cells
- irisin dose at which phosphorylation of FAK and CREB were observed (3T3 F442A adipose cells): 30 pM
- gene expression of Ucp1 [1]: increased the gene expression of Ucp1

Source: patent publication US20210063414A1, “METHODS FOR PREVENTING AND/OR TREATING BONE LOSS CONDITIONS BY MODULATING IRISIN” (Dana-Farber Cancer Institute, Inc., priority 2018, published 2021)
